# Laboratory results from the DeepSol protein solubility set.
# Experiment: soluble on expression in E. coli; label from the status in PepcDB or PDB records
row,Sequence,soluble on expression in E. coli
1,MAHHHHHHSLCKAFCSCYSYHYHHREKMGIKEYYDKLAKSYDKLYKNKYMRIVEREIIQKEIKDGDFVLDIGCGTGEQLKILNNAVGLDISLEMAKIAKNKTNKPVVVANAEFLPFKNKSFDKAISFFGALNHCNLKRALREVNRVLKDDGIFIFTVANIYDIKWIIKNILKGNFKKVKNAMKKRKGTITKVIDGEKIKVKTRFYDFKEVEDALKKEGFEVVYTFGTNITNSPLDKFIYKSFLKNFASYIGFVAKKVKNREG,not soluble
2,MALPPGLMVVEEIISSEEEKMLLESVDWTEDTDNQNSQKSLKHRRVKHFGYEFHYENNNVDKDKPLSGGLPDICESFLEKWLRKGYIKHKPDQMTINQYEPGQGIPAHIDTHSAFEDEIVSLSLGSEIVMDFKHPDGIAVPVMLPRRSLLVMTGESRYLWTHGITCRKFDTVQASESLKSGIITSDVGDLTLSKRGLRTSFTFRKVRQTPCNCSYPLVCDSQRKLEHHHHHH,soluble
3,MGHHHHHHSHMKALLSIEMDMQVPFHDVDSMGITWHGNYLRYFEVARCKLLDELGYNYRQMRASNYAWPIIDVQIKYVKPSTFEQHITVRAELVEWENRLKINYQIRDTATGERITKGYTIQAAVDMTSQEMCFVTPEVFRSKIAPLLAKVDNE,soluble
4,MSQNSDTFDSGLQMEVHKMAEADNSSVQQKFDAIRDYIGRKETTIILCEHDDSRKIKLTLNKQRMESSMFLTEMPDGGIQEKTKFHRNGLAVCSYNAFDEVDLPLADSYIFYGLPSNVEAFPRMLHGIEKSAHKENKIVFIDIVVSILEKIQIKVVSFELYNRKCTVPTWVAELVITYCAPIEEQQQRIEEIRRTRASVPVAISDAANGSAEMVPSNTTGSSGSPMSTAPVPAAKKEKVQYESIRQIRPNAQGRYFVPARMINMDIEMSNDEYSPDESENDENEYDYENAARYDDGYDEGHEYCQ,not soluble
5,MGSDKIHHHHHHMGVKSLVPQELIEKIKLISPGTELRKALDDIINANFGALIFLVDDPKKYEDVIQGGFWLDTDFSAEKLYELSKMDGAIVLSEDITKIYYANVHLVPDPTIPTGETGTRHRTAERLAKQTGKVVIAVSRRRNIISLYYKNYKYVVNQVDFLISKVTQAISTLEKYKDNFNKLLSELEVLELENRVTLADVVRTLAKGFELLRIVEEIRPYIVELGEEGRLARMQLRELTEDVDDLLVLLIMDYSSEEVEEETAQNILQDFITRREPSPISISRVLGYDVQQAAQLDDVLVSARGYRLLKTVARIPLSIGYNVVRMFKTLDQISKASVEDLKKVEGIGEKRARAISESISSLKHRKTSE,not soluble
6,MAHHHHHHMCSVLILASTCRRRFSNVHLTPAGTVLNSNSALISRRINRRKMKNCNNNDLLKVLKMETTYNELPAHNLLMSSKNDINKLFDYINKNEELSKLMNSCGTYVYLKYLGVVIFSIKENVQISHLSEFIQYLLNKNVFGSSTFTKIRKSKDSDTYNAPFIICLVLIVRVCLSPFLNNILYCHMQNEIITFIIFKPTKKSVHCFFSFFTILL,soluble
7,MSRKKFMESVGATCSNWNWSWSFVNHEERFVVFGHWDVHKDGLIFDESWKGPGRKQSLEHISLIQNNGYRLKTFPMQYDQTETGTAKIKSFDWILEEKHLAGVDGLWYALNYSESVDITSIEEVVHPETYIEGATKEISVNAYERNPDARAKCILHYGCKCYVCKFDFQEVYGDIGKGFIHVHHEVSLAEIKKEYSVDPIKDLKPLCPNCHGIIHRTHPPISVDSLINLLRSRNLEHHHHHH,soluble
8,MSLKWFNTLSHNRWLEQETDRIFNFGKNAVVPTGFGWLGNKGQIKEEMGTHLWITARMLHVYSVAASMGRPGAYDLVDHGIKAMNGALRDKKYGGWYACVNDQGVVDASKQGYQHFFALLGAASAVTTGHPEARKLLDYTIEVIEKYFWSEEEQMCLESWDEAFSQTEDYRGGNANMHAVEAFLIVYDVTHDKKWLDRALRIASVIIHDVARNGDYRVNEHFDSQWNPIRDYNKDNPAHRFRAYGGTPGHWIEWGRLMLHLHAALEARFETPPAWLLEDAKGLFHATIRDAWAPDGADGFVYSVDWDGKPIVRERVRWPIVEAMGTAYALYTLTDDSQYEEWYQKWWDYCIKYLMDYENGSWWQELDADNKVTTKVWDGKQDIYHLLHCLVIPRLPLAPGLAPAVAAGLLDINAKEGGSHHHHHH,soluble
9,MSSASGLRRGHPAGGEENMTETDAFYKREMFDPAEKYKMDHRRRGIALIFNHERFFWHLTLPERRGTCADRDNLTRRFSDLGFEVKCFNDLKAEELLLKIHEVSTVSHADADCFVCVFLSHGEGNHIYAYDAKIEIQTLTGLFKGDKCHSLVGKPKIFIIQACRGNQHDVPVIPLDVVDNQTEKLDTNITEVDAASVYTLPAGADFLMCYSVAEGYYSHRETVNGSWYIQDLCEMLGKYGSSLEFTELLTLVNRKVSQRRVDFCKDPSAIGKKQVPCFASMLTKKLHFFPKSN,soluble
10,PAAQSCAARVGAPLVNDTVSISLSDHLTDMPTIESRLHAAAKEGFTITIYNPWSRKRRDNYEKCCEILLEHRDPETPVGVVHAAGREDEQVEIVELGELPELGETDLVDMTTTLLVGNEDTY,not soluble
11,MSLAEFIYTMRKVRKAHGDKVILDDVNLNFLPGAKIGVVGPNGAGKSSVLRIMAGLDTPNNGDAYLAPGASVGILQQEPHLDETKTVRENVEEGVPIKGKLNRYNEVAELMATDYSDELMEEMGRLQEELDAADAWDIDSQLEQAMDALRCPPPDEPVTHLSGGERRRVALCKLLLSKPDLLLLDEPTNHLDAESVLWLEQHLASYKGAILAVTHDRYFLDNVAEWILELDRGRAYPYEGNYSTYLEKKAERLEVQGKKDQKLQKRLKEELAWVRSGAKARQAKNKARLGRYEEMAAEAEKSRKLDFEEIQIPTPPRLGNVVVEVEHLDKGFEGRTLIKDLSFTLPRNGIVGVIGPNGVGKTTLFKTIVGLEQPDSGVVRVGDTVKLSYVDQNRAGIDPKKNVWEVVSDGLDYIEVGQNEIPSRAYVSAFGFKGPDQQKPAGVLSGGERNRLNLALTLKEGGNLILLDEPTNDLDVETLSSLEHALEQFPGCAVVISHDRWFLDRTCTHILAWEGDDDNEAKWFWFEGEGHHHHHH,soluble
12,MGSDKIHHHHHHMKKSTLIDKFLDLLSSRSSLREIQNNFIDANIMRDSSINQKYNGQRKSLAWEYISTLNLEDEAEFSKLLNVIETYLFQWNLYIHEVDEDEEINRLIKIINVLGYEYNKDTGKITKNEREVNLSTIKSLAIKFDIEYVLKECNRIEKEALTDPEDAITSAKSMVESTLKHILDSEGEKFNNNETLRGLYKKVSNIMNLSPGGHNENTFKTILSGMINVINGLDEVRNEYGDAHGKSKKNYRPETRHAFLAINAARTITEFLLASYKK,not soluble
13,HQQQRSVMTEEYKVPDGMVGFIIGRGGEQISRIQQESGCKIQIAPDSGGLPERSCMLTGTPESVQSAKRLLDQIVEKGR,soluble
14,MGKIIAIANQKGGVGKTTTSVNLGAGLAQVGKKVLLVDIDAQGNATTGVGIEKSELDQCIYNVLVEDADVQGVIQKTATENLDVLPATIQLAGAEIELVPTISREVRLQRALQPVRDEYDYIIIDCPPSLGLLTINALTAADSVIIPVQCEYYALEGLSQLLNTVRLVQKHLNKNLAIQGVLLTMLDARTNLGIQVIDEVKKYFRDKVYRSIIPRNVRLSEAPSHGKPIMQYDAKSRGAEVYIDLAEEVIAGG,not soluble
15,MGGSHHHHHHGMASALAQVAMSTLPVEDEESSESRMVVTFLMSALESMCKELAKSKAEVACIAVYETDVFVVGTERGRAFVNTRKDFQKDFVKYCVEEEEKAAEMHKMKSTTQANRMSVDAVEIETLRKTVEDYFCFCYGKALGKSTVVPVPYEKMLRDQSAVVVQGLPEGVAFKHPENYDLATLKWILENKAGISFIIKRPFLEPKKHVGGRVMVTDADRSILSPGGSCGPIKVKTEPTEDSGISLEMAAVTVKEESEDPDYYQYNIQGSHHSSEGNEGTEMEVPAEG,not soluble
16,MNKKKFENLPKWNNFALFNFLAKDKENSLEVMVAARGFAVPGIVATNYETAEEAANVVKELQTTAEVISVGLGGGGDWQNWRDVLHIARLAPNSHINQPIETAGLTNGLLPETYTNALVRPTGKVGIVKLSSGDEITAEEAVDYCLSANIPSIKFMSIEGTKYLDELVYLTKIAADKGIYGIEPAGGIGADNILEITTAIKSTGIPFYMPHIFGKTIDKATGRTKPEEIEKIFAALEGN,soluble
17,MGGSHHHHHHGMASALANEEDDPVVQEIDVYLAKSLAEKLYLFQYPVRPASMTYDDIPHLSAKIKPKQQKVELEMAIDTLNPNYCRSKGEQIALNVDGACADETSTYSSKLMDKQTFCSSQTTSNTSRYAAALYRQGELHLTPLHGILQLRPSFSYLDKADAKHREREAANEAGDSSQDEAEDDVKQITVRFSRPESEQARQRRVQSYEFLQKKHAEEPWVHLHYYGLRDSRSEHERQYLLCPGSSGVENTELVKSPSEYLMMLMPPSQEEEKDKPVAPSNVLSMAQLRTLPLADQIKILMKNVKVMPFANLMSLLGPSIDSVAVLRGIQKVAMLVQGNWVVKSDILYPKDSSSPHSGVPAEVLCRGRDFVMWKFTQSRWVVRKEVATVTKLCAEDVKDFLEHMAVVRINKGWEFILPYDGEFIKKHPDVVQRQHMLWTGIQAKLEKVYNLVKETMPKKPDAQSGPAGLVCGDQRIQVAKTKAQQNHALLERELQRRKEQLRVPAVPPGVRIKEEPVSEEGEEDEEQEAEEEPMDTSPSGLHSKLANGLPLGRAAGTDSFNGHPPQGCASTPVARELKAFVEATFQRQFVLTLSELKRLFNLHLASLPPGHTLFSGISDRMLQDTVLAAGCKQILVPFPPQTAASPDEQKVFALWESGDMSDQDCCVSYGGMWYLKGTVQS,not soluble
18,MGSDKIHHHHHHMKEIVTVGVDIAKNVFQVHGVDAQGVVVVRRKLRRSKVSGFFESLPPCLIGIEACATAHHWARHLMALGHEVKLMPAAYVKPYVKRQKNDAADAEGICEAVQRPTMRFVPVKSKEQQGVLMLHRARELLVRQRTMLINALRAHLAELGIATRLGPMGVKDAVAVIEGIDQHLIPEIVQHALSPLCDQLRHVHTKIEEMDRQILEWHRSSALSQRLATIPGIGPVTASAIAATITDVSSFRSGRQLAAWIGLVPRQSSSGGKERLGRITRQGDPYIRRLLVIGAAL,not soluble
19,GMSSKEEILSILEAFASTERMGSFFLDNATADFLFIRPSGNPLDAKGFENMWSSGDLVLESAEITKVHKFELLGSNAAICVFTLGSKFTYKGTQNDDLPTVTSIFKKIDEKWKVAWMQRSSGQSDMTLWNE,soluble
20,GPGSMEGISEEQRQREEAEIRERDRKRQQEKEDYERRLAEAKAEEERKRREEEQLRLEEEKRKKRQEEEWKRLGSDAIQDLPPVPPPVAEEGALDMWYLDDETSQPPLSTASLKPGRKVGAPVITMKALRELGVVLFRVSMSDFSVVRQIIKEREYKHTDEVKISQTAKDDSFLERWYQEHYTEDEQFRVVMDGSFFLDIRSKQDEWIRVHVKAGDLVVLPAGIYHRATLDEDDYVALYRGFQDAPRFVPVKRSDSRADSNRVRLAYLMSLKKGDVATQNGFL,soluble
21,MNALSGLQVITRRPDKRSASGVTKKCRKSLKTAPDTKTVFKGSFASHYVDKSSQVNPGTHITVRGSIHGEVSIKKMLKGSRCRTAL,not soluble
22,MKIKQALFTAGYSSFYFDDQQAIKNGAGHDGFIYTGDPVTPGFTSVRQAGECVSVQLILENGAVAVGDCAAVQYSGAGGRDPLFLAEHFIPFLNDHIKPLLEGRDVDAFLPNARFFDKLRIDGNLLHTAVRYGLSQALLDATALASGRLKTEVVCDEWQLPCVPEAIPLFGQSGDDRYIAVDKMILKGVDVLPHALINNVEEKLGFKGEKLREYVRWLSDRILSLRSSPRYHPTLHIDVYGTIGLIFDMDPVRCAEYIASLEKEAQGLPLYIEGPVDAGNKPDQIRMLTAITKELTRLGSGVKIVADEWCNTYQDIVDFTDAGSCHMVQIKTPDLGGIHNIVDAVLYCNKHGMEAYQGGTCNETEISARTCVHVALAARPMRMLIKPGMGFDEGLNIVFNEMNRTIALLQTKD,soluble
